Measurements: paper PMC10120838, “Dual functions of PsmiR172b-PsTOE3 module in dormancy release and flowering in tree peony (Paeonia suffruticosa)”

Molecular target: PsTOE3 (MBP-PsTOE3; PsAP2 in primer table) (Paeonia suffruticosa, UniProt A0A189CP77 1-510)
Test: EMSA; poly(dI-dC); DIG Gel Shift Kit (Roche) per manufacturer, probe 0.155 uM, poly(dI-dC); protein suspended in 20 mM Tris-HCl, 0.2 M NaCl, 1 mM EDTA, 10 mM beta-mercaptoethanol; pH and temperature not stated
Settings: protein: recombinant, purified on Ni-NTA, label: DIG, blunt

Sequence of PsTOE3 (MBP-PsTOE3; PsAP2 in primer table) (A0A189CP77 entry or part of it): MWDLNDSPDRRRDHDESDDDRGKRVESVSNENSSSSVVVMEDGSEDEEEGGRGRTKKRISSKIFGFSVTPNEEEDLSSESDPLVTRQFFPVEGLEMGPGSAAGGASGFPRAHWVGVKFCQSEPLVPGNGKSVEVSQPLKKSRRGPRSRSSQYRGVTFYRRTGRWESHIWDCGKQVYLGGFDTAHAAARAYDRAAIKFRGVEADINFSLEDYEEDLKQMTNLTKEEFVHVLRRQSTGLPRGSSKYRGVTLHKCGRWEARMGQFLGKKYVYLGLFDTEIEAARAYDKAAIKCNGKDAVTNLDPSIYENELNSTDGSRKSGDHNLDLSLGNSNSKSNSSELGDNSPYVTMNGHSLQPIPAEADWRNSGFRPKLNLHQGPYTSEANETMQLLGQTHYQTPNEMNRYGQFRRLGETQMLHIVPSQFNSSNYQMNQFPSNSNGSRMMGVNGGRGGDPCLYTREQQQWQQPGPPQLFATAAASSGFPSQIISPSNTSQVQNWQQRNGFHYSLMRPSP

Row | Binder | binding result (R oligo S209 is printed as the plain complement (3'-5' order) although the header says 5'-3') | binding result (R oligo S211 is printed as the plain complement (3'-5' order) although the header says 5'-3')
1 | C-repeat probe of PsEBB1 (4x ACCGAC) (dsDNA) DNA 1: AACCGACACCGACACCGACACCGAC DNA 2: GTCGGTGTCGGTGTCGGTGTCGGTT | binds | 
2 | mutant C-repeat probe (4x AGCGAC) (dsDNA) DNA 1: AAGCGACAGCGACAGCGACAGCGAC DNA 2: GTCGCTGTCGCTGTCGCTGTCGCTT |  | no binding
